Test results published in patent US20150086555A1.

B1: TCN-536 (5095_N01) (antibody, V domains shown)
VH: QVQLQQWGAGLLKPSETLSLTCAVYGGSFSVSGYYWSWIRQPPGRGLEWIGEISHGGSTNYNPSLKSRVTISVDTTKNQFSLRLSSVTAADTAVYYCARGTDPDTEVYCRVGNCAAFDYWGQGSLVTVSS
VL: EIILAQSPGTLSLSPGERATLSCRASQFVSTRSLAWYQQRPGQAPRLLIYGASSRATGIPDRFSGSGSGTDFTLTISRLEPEDFAVYYCQHYGYSPRYAFGQGSKVEIK
B2: TCN-528 (5087_P17) (antibody, V domains shown)
VH: QVQLVQSGSEVKKPGASVKVSCKASGYTFTNYDINWIRQAPGQGLEWMGWINPNSGTTGSAQRFQGRVTITVDTSITTVYMELSSLRSDDTAIYYCARGRELLRLQHFLTDSQSERRDCFDPWGQGTLVTVSS
VL: DIQMTQSPSSLSASVGDRVTITCRANQDIGIYLNWYQQNPGKVPKLLLHGASSLQGGVPSRFSASGSGTDFTLTIHSLQPEDLATYYCQQSRRLPYTFGQGTRVELK
B3: TCN-527 (5086_C06) (antibody, V domains shown)
VH: QVQLQESGPGLVKPSETLSLNCAVSGGSISNYYWSWIRQPPGKGLEWIGYISYNGRPKYNPSLTSRVTISVDTSKDQFSLELRSVTAADTALYYCARETRFGELLSPYDAFEIWGQGTMVTVSS
VL: DIQMTQSPSSLSASVGDRVTMTCRASQNIRSYLNWYQQRPGTAPKLLIYAASTLHSGVPSRFSGGGSGTDFTLTINNLQPEDFASYYCQQSYDNPQTFGQGTKVEIK
B4: TCN-540 (5060_F05) (antibody, V domains shown)
VH: QVQLVQSGGGVVQPGRSLRLSCAASGFTFSSYAMHWVRQAPGKGLEWVAIISYDGNDQYYTDSVKGRFTISRDSSKVYLQMHRLRPEDTAVYYCAKEFETSGYFHGSFDYWGQGILVTVSS
VL: QSALTQPASVSGSPGQSITISCTGTSSDVGGYNYVSWYQQHPGKAPKLLIYEVTNWPSGVSNRFSGSKSGNTASLTISGLQAEDEADYYCSSYAGSSTWVFGGGTRVTVL

These binders were tested against recombinant soluble homotrimeric HA of A/Vietnam/1203/04 (H5N1) (Influenza A virus A/VietNam/1203/2004(H5N1)) (assay: HA microarray, BCC supernatant). Settings: remark: other sources report otherwise.

| Binder | Trimeric HA Binding: RLU |
| --- | --- |
| B1 | 146 RLU |
| B2 | 45600 RLU |
| B3 | 21300 RLU |
| B4 | 63 RLU |

These binders were tested against recombinant soluble homotrimeric HA of A/chicken/Vietnam/NCVD-016/08 (H5N1) (Influenza A virus A/chicken/Vietnam/NCVD-016/2008(H5N1)) (assay: HA microarray, BCC supernatant). Settings: remark: other sources report otherwise.

| Binder | Trimeric HA Binding: RLU |
| --- | --- |
| B1 | 287 RLU |
| B2 | 38200 RLU |
| B3 | 27000 RLU |
| B4 | 70 RLU |

These binders were tested against recombinant soluble homotrimeric HA of A/duck/Yangzhou/02/05 (H8N4) (Influenza A virus A/duck/Yangzhou/02/2005(H8N4)) (assay: HA microarray, BCC supernatant). Settings: remark: other sources report otherwise.

| Binder | Trimeric HA Binding: RLU |
| --- | --- |
| B1 | 436 RLU |
| B2 | 38400 RLU |
| B3 | 28800 RLU |
| B4 | 117 RLU |

What follows are binders tested against recombinant soluble homotrimeric HA of A/northern shoveler/California/HKWF115/07 (H6) (Influenza A virus A/northern shoveler/California/HKWF115/2007(H6N1)) (assay: HA microarray, BCC supernatant). Settings: remark: other sources report otherwise.

| Binder | Trimeric HA Binding: RLU |
| --- | --- |
| B1 | 2210 RLU |
| B2 | 46800 RLU |
| B3 | 30300 RLU |
| B4 | 131 RLU |

The binders below were run against recombinant soluble homotrimeric HA of A/Wisconsin/67/05 (H3N2) (Influenza A virus A/Wisconsin/67/2005(H3N2)) (assay: HA microarray, BCC supernatant). Settings: remark: other sources report otherwise.

| Binder | Trimeric HA Binding: RLU |
| --- | --- |
| B1 | 35000 RLU |
| B2 | 48800 RLU |
| B3 | 5720 RLU |
| B4 | 728 RLU |

What follows are binders tested against recombinant soluble homotrimeric HA of A/Solomon Islands/3/06 (H1N1) (Influenza A virus A/Solomon Islands/3/2006(H1N1)) (assay: HA microarray, BCC supernatant). Settings: remark: other sources report otherwise.

| Binder | Trimeric HA Binding: RLU |
| --- | --- |
| B2 | 44800 RLU |
| B3 | 16500 RLU |
| B4 | 64 RLU |

What follows are binders tested against recombinant soluble homotrimeric HA of A/Anhui/1/05 (H5N1) (Influenza A virus A/Anhui/1/2005(H5N1)) (assay: HA microarray, BCC supernatant). Settings: remark: other sources report otherwise.

| Binder | Trimeric HA Binding: RLU |
| --- | --- |
| B1 | 543 RLU |
| B2 | 49800 RLU |
| B3 | 21400 RLU |
| B4 | 25 RLU |

These binders were tested against recombinant soluble homotrimeric HA of A/Netherlands/219/03 (H7N7) (Influenza A virus A/Netherlands/219/03(H7N7)) (assay: HA microarray, BCC supernatant). Settings: remark: other sources report otherwise.

| Binder | Trimeric HA Binding: RLU |
| --- | --- |
| B1 | 976 RLU |
| B2 | 49300 RLU |
| B3 | 8890 RLU |
| B4 | 381 RLU |

These binders were tested against recombinant soluble homotrimeric HA of A/swine/Ontario/01911-2/99 (H4N6) (Influenza A virus A/Swine/Ontario/01911-2/99 (H4N6)) (assay: HA microarray, BCC supernatant). Settings: remark: other sources report otherwise.

| Binder | Trimeric HA Binding: RLU |
| --- | --- |
| B1 | 79 RLU |
| B2 | 47500 RLU |
| B3 | 7690 RLU |
| B4 | 178 RLU |

The binders below were run against recombinant soluble homotrimeric HA of A/Japan/305/57 (H2N2) (Influenza A virus A/Japan/305/1957(H2N2)) (assay: HA microarray, BCC supernatant). Settings: remark: other sources report otherwise.

| Binder | Trimeric HA Binding: RLU |
| --- | --- |
| B1 | 121 RLU |
| B2 | 46400 RLU |
| B3 | 19300 RLU |
| B4 | 2970 RLU |

These binders were tested against recombinant soluble homotrimeric HA of A/Indonesia/5/05 (H5N1) (Influenza A virus A/Indonesia/5/2005(H5N1)) (assay: HA microarray, BCC supernatant). Settings: remark: other sources report otherwise.

| Binder | Trimeric HA Binding: RLU |
| --- | --- |
| B2 | 42800 RLU |
| B3 | 23800 RLU |
| B4 | 31 RLU |

The binders below were run against recombinant soluble homotrimeric HA of A/California/4/09 (H1N1) (Influenza A virus A/California/04/2009(H1N1)) (assay: HA microarray, BCC supernatant). Settings: remark: other sources report otherwise.

| Binder | Trimeric HA Binding: RLU |
| --- | --- |
| B1 | 151 RLU |
| B2 | 48800 RLU |
| B3 | 28000 RLU |
| B4 | 57 RLU |

These binders were tested against recombinant soluble homotrimeric HA of A/Hong Kong/2108/03 (H9N2) (Influenza A virus A/HK/2108/2003(H9N2)) (assay: HA microarray, BCC supernatant). Settings: remark: other sources report otherwise.

| Binder | Trimeric HA Binding: RLU |
| --- | --- |
| B1 | 1570 RLU |
| B2 | 42000 RLU |
| B3 | 16000 RLU |
| B4 | 22 RLU |

What follows are binders tested against recombinant homotrimeric HA A/Anhui/1/05 H5N1 (Influenza A virus A/Anhui/1/2005(H5N1)) (assay: protein microarray, purified IgG, trimeric HA). Settings: remark: other sources report otherwise.

| Binder | Trimeric HA Binding: RLU |
| --- | --- |
| B1 | 8860 RLU |
| B2 | 28800 RLU |
| B3 | 24700 RLU |
| B4 | 769 RLU |

What follows are binders tested against recombinant homotrimeric HA A/Wisconsin/67/05 H3N2 (Influenza A virus A/Wisconsin/67/2005(H3N2)) (assay: protein microarray, purified IgG, trimeric HA). Settings: remark: other sources report otherwise.

| Binder | Trimeric HA Binding: RLU |
| --- | --- |
| B1 | 24700 RLU |
| B2 | 1060 RLU |
| B3 | 600 RLU |
| B4 | 6900 RLU |

The binders below were run against recombinant homotrimeric HA A/Solomon Islands/3/06 H1N1 (Influenza A virus A/Solomon Islands/3/2006(H1N1)) (assay: protein microarray, purified IgG, trimeric HA). Settings: remark: other sources report otherwise.

| Binder | Trimeric HA Binding: RLU |
| --- | --- |
| B2 | 25400 RLU |
| B3 | 22900 RLU |
| B4 | 9360 RLU |

The binders below were run against recombinant homotrimeric HA A/Vietnam/1203/04 H5N1 (Influenza A virus A/VietNam/1203/2004(H5N1)) (assay: protein microarray, purified IgG, trimeric HA). Settings: remark: other sources report otherwise.

| Binder | Trimeric HA Binding: RLU |
| --- | --- |
| B1 | 749 RLU |
| B2 | 24600 RLU |
| B3 | 19800 RLU |
| B4 | 830 RLU |

Each binder was assayed against recombinant homotrimeric HA A/South Carolina/1/18 H1N1 (Influenza A virus A/South Carolina/1/18 (H1N1)) (assay: protein microarray, purified IgG, trimeric HA). Settings: remark: other sources report otherwise.

| Binder | Trimeric HA Binding: RLU |
| --- | --- |
| B1 | 160 RLU |
| B2 | 16900 RLU |
| B3 | 314 RLU |
| B4 | 139 RLU |

The binders below were run against recombinant homotrimeric HA A/Hong Kong/156/97 H5N1 (Influenza A virus A/Hong Kong/156/97 (H5N1)) (assay: protein microarray, purified IgG, trimeric HA). Settings: remark: other sources report otherwise.

| Binder | Trimeric HA Binding: RLU |
| --- | --- |
| B1 | 732 RLU |
| B2 | 25700 RLU |
| B3 | 28600 RLU |
| B4 | 465 RLU |

What follows are binders tested against recombinant homotrimeric HA A/chicken/Vietnam/NCVD-016/08 H5N1 (Influenza A virus A/chicken/Vietnam/NCVD-016/2008(H5N1)) (assay: protein microarray, purified IgG, trimeric HA). Settings: remark: other sources report otherwise.

| Binder | Trimeric HA Binding: RLU |
| --- | --- |
| B1 | 419 RLU |
| B2 | 22700 RLU |
| B3 | 25200 RLU |
| B4 | 338 RLU |

Each binder was assayed against recombinant homotrimeric HA A/northern shoveler/California/HKWF115/07 H6N4 (Influenza A virus A/northern shoveler/California/HKWF115/2007(H6N1)) (assay: protein microarray, purified IgG, trimeric HA). Settings: remark: other sources report otherwise.

| Binder | Trimeric HA Binding: RLU |
| --- | --- |
| B1 | 114 RLU |
| B2 | 18000 RLU |
| B3 | 13200 RLU |
| B4 | 76 RLU |

The binders below were run against recombinant homotrimeric HA A/Indonesia/5/05 H5N1 (Influenza A virus A/Indonesia/5/2005(H5N1)) (assay: protein microarray, purified IgG, trimeric HA). Settings: remark: other sources report otherwise.

| Binder | Trimeric HA Binding: RLU |
| --- | --- |
| B2 | 27000 RLU |
| B3 | 29600 RLU |
| B4 | 139 RLU |

What follows are binders tested against recombinant homotrimeric HA A/Hong Kong/2108/03 H9N2 (Influenza A virus A/HK/2108/2003(H9N2)) (assay: protein microarray, purified IgG, trimeric HA). Settings: remark: other sources report otherwise.

| Binder | Trimeric HA Binding: RLU |
| --- | --- |
| B2 | 23600 RLU |
| B3 | 18700 RLU |
| B4 | 164 RLU |

These binders were tested against recombinant homotrimeric HA A/Japan/305/57 H2N2 (Influenza A virus A/Japan/305/1957(H2N2)) (assay: protein microarray, purified IgG, trimeric HA). Settings: remark: other sources report otherwise.

| Binder | Trimeric HA Binding: RLU |
| --- | --- |
| B1 | 771 RLU |
| B2 | 30100 RLU |
| B3 | 27000 RLU |
| B4 | 29000 RLU |

What follows are binders tested against recombinant homotrimeric HA A/Netherlands/219/03 H7N7 (Influenza A virus A/Netherlands/219/03(H7N7)) (assay: protein microarray, purified IgG, trimeric HA). Settings: remark: other sources report otherwise.

| Binder | Trimeric HA Binding: RLU |
| --- | --- |
| B1 | 186 RLU |
| B2 | 16700 RLU |
| B3 | 15200 RLU |
| B4 | 191 RLU |

The binders below were run against recombinant homotrimeric HA A/California/4/09 H1N1 (Influenza A virus A/California/04/2009(H1N1)) (assay: protein microarray, purified IgG, trimeric HA). Settings: remark: other sources report otherwise.

| Binder | Trimeric HA Binding: RLU |
| --- | --- |
| B1 | 298 RLU |
| B2 | 6810 RLU |
| B3 | 18600 RLU |
| B4 | 266 RLU |

Each binder was assayed against recombinant homotrimeric HA A/Egypt/3300-NAMRU3/08 H5N1 (Influenza A virus A/Egypt/3300-NAMRU3/2008(H5N1)) (assay: protein microarray, purified IgG, trimeric HA). Settings: remark: other sources report otherwise.

| Binder | Trimeric HA Binding: RLU |
| --- | --- |
| B1 | 4710 RLU |
| B2 | 25600 RLU |
| B3 | 23900 RLU |
| B4 | 860 RLU |
